Test results taken from the nanobody polyreactivity screen of Harvey et al. (2022).

Assay: yeast display, Sf9 membrane polyspecificity reagent, FACS + sequencing; frameworks hold sequencing errors
Outline: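 Sorting gates, low and high (top ~1%), were placed on anti-HA fluorescence to track expression and on streptavidin fluorescence to track reagent binding. A clone's polyreactivity label is taken from the gate it came out of. The reagent was 10% biotinylated, detergent-solubilized Sf9 membrane, applied for 1 hour at 4 °C to galactose-induced yeast display cells.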

QVQLVESGGGLVQAGGSLRLSCAASGSTSLINVMGWYRQAPGKERELVAAISSSDGSTYYADSVKGRFTISRDNAKNTVYLQMNSLKPEDTAVYYCNADYYGYYGLMGYWGQGTLVTVSS
polyreactivity (PSR sort gate): low polyreactivity

QVQLVESGGGLVQAGGSLRLSCAASGRTFGYYAMGWYRQAPGKEREFVAAISWSGGSTYYADSVKGRFTISRDNAKNTVYLQMNSLKPEDTAVYYCATDTTYYAGSWYGYWGQGTQVTVSS
polyreactivity (PSR sort gate): low polyreactivity

QVQLVESGGGLVQAGGSLRLSCAPSGFTFRFYVMGWYRQAPGKERELVAAISSSGGSTYYADSVKGRFTISRDNAKYTVYLQMNSMKPEDTAVYYCAADVPGARVSYWTYSGWHYDYWGQGTQVTVSS
polyreactivity (PSR sort gate): high polyreactivity

QVQLVESGGGLVQAGGSLRLSCAASGSTFTGYTMGWYRQAPGKERELVAAITYRGGSTYYADSVKGRFTISRDNAKITDYLQMNSLIPEDTAVYYCAAVPEYYEYSPYDYWGQGTQVTVSS
polyreactivity (PSR sort gate): low polyreactivity

QVQLVESGGGLVQAGGSHRLSCAASGSTFDYYAMGWYRQAPGKEREFVASINWNGARTYYADSVKGRFTNSRDNAKNTVYLQMNSLKPEDTAVYYCAKISRTYYRYDYWGQGTQVTVSS
polyreactivity (PSR sort gate): high polyreactivity

QVQLVESGGGLVQAGGSLRLSCAASGRTFDYYVMGWYRQAPGKERELVAAISTSGGRTYYADSVKGRFTISRDNAKNTVYLQMNSLKPEDTAVYYCAAYWGGWSFRYLYDYWGQGTQVTVSS
polyreactivity (PSR sort gate): high polyreactivity

QVQLVESGGGLVQAGGSLRLSCAASGSTFTFNAMGWSRQAPGKDRELVAAIRWSTGGTYYADSVKGRFTISRDNAKNTVYLQMNSLKPEDTAVYNCAAQFVPYFYFSKYDYWGQGTQVTVSS
polyreactivity (PSR sort gate): low polyreactivity

QVQLQESDGGLVQAGGSLRLSCAASGNIFPTDRMGRYRQAPAKVLEFVATISHGGSTNYADSVKGRFTISRDNATNTVYLQMNSLKPEDTAVYYCAVWSLGRCRHYYWGQGTHVTVSS
polyreactivity (PSR sort gate): low polyreactivity

QVQIVESGRGLVQAGGSLRVSCAASGRTFTYNAMGWYRQAPGKERELVAAINGDGGSTYYADSVKVRFTISRDNAKNTVYLQMNSLKPEDTAVYYCNRPRIYRYGYWGQGTQVTVSS
polyreactivity (PSR sort gate): high polyreactivity

QVQLVESGGGLVQAGGSLRLSCAASGGIFWFYAMGWYRQAPGKERELVASIRSSDGGTYYADSVKGRFTISRDNAKNTVYLQMNSLKPEDTAVYYCAADQTYERHWVYYWGQGTQVTVSS
polyreactivity (PSR sort gate): low polyreactivity

QVQLVESGGGLVQAGGSLRLSCAASGRTFWDYGMGWYRQAPGKDRELDATISGNGGDTYYADSVKGRFTISRDTAKNTVYLQMNSLKPEDTAVYYCAADYRFYRTDRHYDYWGQGTQVTVSS
polyreactivity (PSR sort gate): low polyreactivity

QVQLQESGGGLVQAGGSLRLSCAASGPISRRSTMGWYRQAPGKERELVTAITRGTNTNYADSVKGRFTISRDNAKNTESLQMNSLKPEDTAVYYGAAYGVLKPSRGDAVFHRYWGQGTQVTVSS
polyreactivity (PSR sort gate): low polyreactivity

QVQLVESRGGLDQAGGSLRLSCAASGSIFNAYVMGWYRQAPGKERELVAAISRSGGRTYYADSVKGRFTISRDNAKNTVYLQMNSLKPEDTAVYYCAASTIWHYDSWGQGTQVTVSS
polyreactivity (PSR sort gate): high polyreactivity

QVQLVESGGGLVQAGGSLRLSCAASGITLQNNAMGWYRQAPGKERELVAAITGSGGSTYYADSVKGRFTISRDNAKNTVYLQMNSLKPEDTAVYYCATDGIFHLGVYTPYDYWGQGTQVTVSS
polyreactivity (PSR sort gate): low polyreactivity

QVQVVESGGGLVQAGGSLRLSCAASGSTFVTYAMGWYRQARVKERELVAGISTGDITNYADSVKVRFTISRDNAKNTVYLQINRLKPEDTAVYYCSADLIQGAAPFRYDYWGQGTQVTVSS
polyreactivity (PSR sort gate): low polyreactivity

QVQLVESGGGLVQAGGSLRLSCAASGLIFRRNAMGWYRQAPGKERELVAAISRSSGSTYYADSVKGRFTISRDNAKNTVYLQMNSLKPEDTAVYYCAVHVWGTYGSWEYYYWGQGTQVTVSS
polyreactivity (PSR sort gate): high polyreactivity

QVQLVESGGGLVQAGGSLRLSCAASGYIFYDNAMGWYRQAPVKERELVAAISASGGDTYYADSVKGRFTISRDNAKNTVYLQMNSLKPDDTAVYYCAADLITYAMEYWGQGTQVTVSS
polyreactivity (PSR sort gate): low polyreactivity

QVQLVESGGGLVQAGGSLRLSCAASGITFVRYAMGWYRQAPGKERELVAAISSGGSTHYADSVKGRFTISRDNAKNTVYLQMYSLKPEDTAVYYCAAQWTESSLYRFGYLGQGTQVTVSS
polyreactivity (PSR sort gate): high polyreactivity

QVQLVESGGGLVQAGGSLRLSCAASGRTFYAYAMGWYRQAPGKDRELVAAITLSTGTTYYADSVKGRFTISRDNAKNTVYLQMNSLKPADTAVYYCAVEGYWYAGWYAMDYWGQGTQVTVSS
polyreactivity (PSR sort gate): low polyreactivity

QVQLVESGGGLVQSGGSLRLSCAASGIIFNDYAMGWYRQAPGKERELVAAISGRGGRTYYADSVKGRFTISRDNAKITVYLQMNSLKPEDTAVYYCAARVLPTDYYWGQGTQVTVSS
polyreactivity (PSR sort gate): high polyreactivity

QVQLVESGGGLVQAGGSLRLICAASGIIFGNNAMGRYRQAPGKERELVAAIRWSTGTTYYADSVKGRFTISRDNATNTVYLQMNSLKPEDTAVYYCAARLRREYGYWGQGTQVTVSS
polyreactivity (PSR sort gate): high polyreactivity

QVQLVESGGGSVQAGGSLRLSCAASGFTFRYYAMGWYRQAPGKERELVAGISSRGGSTYYADSVKGRFTISRDNAKNTVYLQMNSLKPEDTAVYYCATERFLLGLGYDYWGQGTQVTVSS
polyreactivity (PSR sort gate): high polyreactivity

QVQLVESGGGLVQAGGSLRLSCAASGFIFRWYAMGWYRQAPGKERELVAAITSGGSTYYADSVKGRFTISRDNAKNTVYLQMNSLKPEDTAVYYCNTYPGSRHWWYDYWGQGTQVTVSS
polyreactivity (PSR sort gate): high polyreactivity

QVQLVGSGGGLVQAGGSLRLSCAASGRIFSSSAMGWYRQAPGKERELVASIDWSDGSTYYADSVKGRFTISRDNAKNTVYLQRNSLKPEDTAVYYCAADFVPYLIYGYWGQGTQVTVSS
polyreactivity (PSR sort gate): low polyreactivity

QVQLVESGGGLVQAGGSLRLSCAASGRTSAINAMGWYRQAPGKERELVADITRTGGTYADSVKGRFTISRDNAKNNVYLQMNSLKPEVTAVYYCAAVGAWRFDYWGQGTQVTVSS
polyreactivity (PSR sort gate): high polyreactivity

QVQLVESGGGLVQAGGSLRLRCAASGITFKTYAMGWYRQAPGKERELVATINRGSRTNYADSVKGRFTISRDNAKNTVYLKMNSLKPEDTAVYYCAAHYTTFIPSPDGDYLGQGTQVTVSS
polyreactivity (PSR sort gate): low polyreactivity

QVQLVESGGGLVQAGGSLRLSCAASGFISDYYAMGWDRQAPGKERELVADISSGGSTYYADSVKGRCTISRDNAKNTVYLQMNSLKPEDTAVYYCNAGDYFVRFVYYWDDERYDYWGQGTQVTVSS
polyreactivity (PSR sort gate): low polyreactivity

QGQLVESGGGLVQAGGSLRLSCAASGSIFSSNAMGWYRQAPGKQRELVAAIDWDSGSTSYADSVKGRFTISRDNAKNTVYLQMISLKPEDTAVFYCAADEVLSGYYTLDYWGQGTQVTVSS
polyreactivity (PSR sort gate): low polyreactivity

QVQLVETGGGLVQAGGSLRLSCAASGLIFRNNVMGWYRQAPGKERELVAAIRESGGRTYYADSVKGRFTISRDNAKNTVYLQMNSLKPEDTAVYYCAADSRVGFGRLYGYWGQGTQVTVSS
polyreactivity (PSR sort gate): high polyreactivity

QVQLVESGGGLVQAGGSLRLSCAASGGTFWVYAMGWYRQAPGKERELVAAIRWRGGRTYYADSVKGRFTISRDNAKNTVYLQMNSLKPEDTEVYYCAATTWRSGRYNYWGQGTQVTVSS
polyreactivity (PSR sort gate): high polyreactivity

QVQLVESGGGLDQAGGSLRLSCAASGSTFYDNAMRWYRQAPGKERELVADISSGGRTNYADSVKGRFTISRDNAKNTVYLQMNCLKPEDTAVYYCAARLYVLRWYPYDYWGQGTQVTVSS
polyreactivity (PSR sort gate): low polyreactivity

QDQLVESGGGLVQAGGSLRISCAASGSTFFGYAMGWYRQAPGKERELVATISSGDSTNYADSVKGRFTFSRDNAKNTVYLQMNSLKPEDTAVFYCAAQGGDGVLALYYYWGQGTQVTVSS
polyreactivity (PSR sort gate): low polyreactivity

QVQLVESGGGLVQAGGSLRLSCAASGFTFHYYTMGWYRQAPGKERELVASINYSGGRTYYADSVKGRFTISRDNAKNTVYLQMNSLKPEDTAVYYCNARYKSTYYYWGQGTQVTVSS
polyreactivity (PSR sort gate): high polyreactivity

QVQLVESGGGLVQAGGSLRLSCAAPGYIFEFYAMGWYRQAPGKERELVAAISWRGGSTYADSVKGRFTISRDNAKNTVYLQMNSLKPEDTAVYYCNADVEGRYDWTENDYWGQGTQVTVSS
polyreactivity (PSR sort gate): low polyreactivity

QDQLVESGGGLVQAGGSLRLSCAASGRTFGYNAMGWYRQAPGKERELVAANNWSGASTYYADSVKGRFTISRDNAKNTVYLQMNSLKPDDSAVYYCAADYSYIYGFDYWGQGTQVTVSS
polyreactivity (PSR sort gate): low polyreactivity

QVQLVESGGGLVQAGGSLRLSCAASGRTIKYYAMGWYRQAPGKERQLVAVISWSGGRTYYADSVKGRFTISRDNAKNTVYLQMNSLKPEDTAVYYCNAVYPYYYLLKRYKEGYWGLGTQVTVSS
polyreactivity (PSR sort gate): high polyreactivity

QVQLVESGVGLVQPGGSLRLIRAAYGRILRDYDMGWYSTAPRKERELVAAINWSDGSTYYADSVKGRFTISRDNAKYTVYLQMNCQKPVDTAVYYCAAEPYVFGLSSKRFWYNYWGQGTEVTVSS
polyreactivity (PSR sort gate): low polyreactivity

QVQLVESGGGLVQAGGSLRLSCAASGRTFKFYAMGWYRQAPGKERELVAAITSDGSTYYADSVKGRFTISRDNAKNTVYLQMNSQKPEDTAVYYCAKRSNTGRGYDYWGQGTQVTVSS
polyreactivity (PSR sort gate): high polyreactivity

QVQLVESGGGILQAGGSLRLSCAASGFILSPNTMAWSRQAPGKERELVAAISSDVSTYADSVKGRFTISRDNAKNTVYLQINSLKPEDTAVYYCNADDFGYASYEYWGQATQVTVSS
polyreactivity (PSR sort gate): low polyreactivity

QVQLVESGGGLVQAGGSLRLSCAASGLTFGAYAMGWYRQAPGKERELVSAISWSGNTYYADSVKGRFTISRDNAKNTVYLQMNSLKPEDTAGYYCAVRSYGHGFDYWGQGTQVTVSS
polyreactivity (PSR sort gate): high polyreactivity

QVQLGESGGGLVQAGGSLRLSCAASGRIFYKNTMGWYRQAPGKERELVAAISWRGGSTYYADSVKGRFTISRDNAKNTVYLQMNSLKPEDTAVYYCNADIWAYKYDYWGQGTQVTVSS
polyreactivity (PSR sort gate): high polyreactivity

QVQLVESGGGLVQAGGSLRLSCAASGSIFHTYAMGWYRQAPGKEWELVAAISTDGSTYYADSVKGRFTISRDNAKNTVYLQRNSLKPEDTAVYYCNVAAKYDSFHRGITWYDYWGQGTQVTVSS
polyreactivity (PSR sort gate): low polyreactivity

QVQLVESGGGLVQAGGRLRLICAASGSTFVTNYMGWYRQAPGKERELVAAISSGTSTNYADSVKGRFTISRDNAKNSVYLPMNSLTPEDTAVYYCAADSLKRYDYWGQGTQVTVSS
polyreactivity (PSR sort gate): low polyreactivity
